Key:
Assay in all cases: cell-based or functional assay
[1] = target: CDK2/cyclinE (h) (human) (UniProt P24941)
[2] = target: T1, EphA8 (h) (human) (UniProt P29322)
T1 sequence (looked up): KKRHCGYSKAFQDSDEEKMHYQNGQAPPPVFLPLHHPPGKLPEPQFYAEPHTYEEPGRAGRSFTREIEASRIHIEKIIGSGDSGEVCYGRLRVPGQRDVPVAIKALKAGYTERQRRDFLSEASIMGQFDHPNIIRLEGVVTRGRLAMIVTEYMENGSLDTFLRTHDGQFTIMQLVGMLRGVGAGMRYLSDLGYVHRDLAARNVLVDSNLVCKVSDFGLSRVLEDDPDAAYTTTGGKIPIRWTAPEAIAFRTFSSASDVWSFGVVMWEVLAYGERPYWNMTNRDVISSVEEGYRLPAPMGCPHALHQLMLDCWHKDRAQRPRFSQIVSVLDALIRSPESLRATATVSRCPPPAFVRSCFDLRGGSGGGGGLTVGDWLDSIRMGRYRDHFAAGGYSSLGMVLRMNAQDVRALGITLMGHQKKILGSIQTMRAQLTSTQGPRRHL

[3] = target: T2, Haspin (h) (human) (UniProt Q8TF76)
T2 sequence (looked up): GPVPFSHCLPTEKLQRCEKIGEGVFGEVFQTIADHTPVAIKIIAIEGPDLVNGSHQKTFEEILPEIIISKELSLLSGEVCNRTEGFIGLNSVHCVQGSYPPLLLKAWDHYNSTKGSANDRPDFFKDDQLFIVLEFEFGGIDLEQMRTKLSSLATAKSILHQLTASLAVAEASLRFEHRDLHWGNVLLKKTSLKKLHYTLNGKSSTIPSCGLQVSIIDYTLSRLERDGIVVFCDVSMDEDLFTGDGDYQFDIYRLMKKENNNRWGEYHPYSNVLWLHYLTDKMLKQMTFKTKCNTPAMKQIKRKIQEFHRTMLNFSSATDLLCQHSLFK

[4] = target: T3, IRAK4 (h) (human) (UniProt Q9NWZ3)
T3 sequence (looked up): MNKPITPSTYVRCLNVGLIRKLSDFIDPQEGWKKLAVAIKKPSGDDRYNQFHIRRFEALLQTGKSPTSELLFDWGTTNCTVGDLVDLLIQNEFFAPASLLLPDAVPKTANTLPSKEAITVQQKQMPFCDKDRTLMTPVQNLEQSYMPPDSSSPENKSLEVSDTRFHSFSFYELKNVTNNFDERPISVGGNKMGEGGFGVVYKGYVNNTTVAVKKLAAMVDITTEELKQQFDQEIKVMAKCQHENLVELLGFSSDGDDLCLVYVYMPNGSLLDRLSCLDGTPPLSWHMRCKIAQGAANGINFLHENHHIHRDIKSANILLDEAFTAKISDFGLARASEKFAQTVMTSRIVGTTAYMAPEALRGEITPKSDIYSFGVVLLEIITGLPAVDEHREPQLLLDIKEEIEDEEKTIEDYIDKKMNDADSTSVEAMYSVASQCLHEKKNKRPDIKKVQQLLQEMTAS

[5] = target: MRCKβ (h) (human) (UniProt Q9Y5S2)
MRCKβ (h) (human), sequence (Q9Y5S2 1-473 limits assumed): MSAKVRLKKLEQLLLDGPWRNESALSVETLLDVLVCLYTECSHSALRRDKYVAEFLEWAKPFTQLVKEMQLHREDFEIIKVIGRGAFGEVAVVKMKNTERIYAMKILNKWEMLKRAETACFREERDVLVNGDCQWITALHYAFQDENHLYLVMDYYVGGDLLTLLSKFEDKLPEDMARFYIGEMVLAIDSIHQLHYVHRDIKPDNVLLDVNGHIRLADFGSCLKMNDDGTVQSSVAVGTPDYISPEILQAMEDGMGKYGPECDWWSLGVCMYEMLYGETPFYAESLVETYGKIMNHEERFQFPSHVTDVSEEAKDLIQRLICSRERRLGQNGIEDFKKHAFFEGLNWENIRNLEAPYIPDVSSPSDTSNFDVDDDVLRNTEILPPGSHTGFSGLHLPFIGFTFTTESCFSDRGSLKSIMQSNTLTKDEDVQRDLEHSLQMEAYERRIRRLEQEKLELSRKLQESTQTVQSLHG

[6] = target: T4, PKCµ (h) (human) (UniProt Q15139)
T4 sequence (looked up): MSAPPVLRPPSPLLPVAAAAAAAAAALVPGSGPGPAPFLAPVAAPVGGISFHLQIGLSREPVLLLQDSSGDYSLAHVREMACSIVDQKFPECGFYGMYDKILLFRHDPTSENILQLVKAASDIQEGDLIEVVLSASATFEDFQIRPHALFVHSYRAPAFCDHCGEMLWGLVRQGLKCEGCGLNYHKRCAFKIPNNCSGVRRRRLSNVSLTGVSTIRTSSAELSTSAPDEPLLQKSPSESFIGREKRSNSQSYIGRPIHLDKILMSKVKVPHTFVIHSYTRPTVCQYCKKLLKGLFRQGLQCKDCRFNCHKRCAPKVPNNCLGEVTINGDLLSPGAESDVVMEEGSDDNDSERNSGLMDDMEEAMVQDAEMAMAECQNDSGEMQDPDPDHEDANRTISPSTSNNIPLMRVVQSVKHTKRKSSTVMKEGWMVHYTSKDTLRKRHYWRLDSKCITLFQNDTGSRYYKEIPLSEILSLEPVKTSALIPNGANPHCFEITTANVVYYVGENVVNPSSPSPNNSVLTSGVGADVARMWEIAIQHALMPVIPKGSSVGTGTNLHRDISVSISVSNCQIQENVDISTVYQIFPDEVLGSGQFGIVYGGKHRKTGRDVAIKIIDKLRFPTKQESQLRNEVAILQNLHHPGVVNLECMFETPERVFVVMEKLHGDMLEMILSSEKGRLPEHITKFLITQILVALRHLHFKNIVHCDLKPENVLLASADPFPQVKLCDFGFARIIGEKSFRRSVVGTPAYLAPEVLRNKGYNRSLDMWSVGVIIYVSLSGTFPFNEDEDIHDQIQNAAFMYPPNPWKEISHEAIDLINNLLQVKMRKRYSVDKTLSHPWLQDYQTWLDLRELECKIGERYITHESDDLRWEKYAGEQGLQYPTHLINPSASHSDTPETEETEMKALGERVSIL

[7] = target: PKCδ (h) (human) (UniProt Q05655)
[8] = target: SIK (h) (human) (UniProt P57059)
[9] = target: T5, TAO3 (h) (human) (UniProt Q9H2K8)
T5 sequence (looked up): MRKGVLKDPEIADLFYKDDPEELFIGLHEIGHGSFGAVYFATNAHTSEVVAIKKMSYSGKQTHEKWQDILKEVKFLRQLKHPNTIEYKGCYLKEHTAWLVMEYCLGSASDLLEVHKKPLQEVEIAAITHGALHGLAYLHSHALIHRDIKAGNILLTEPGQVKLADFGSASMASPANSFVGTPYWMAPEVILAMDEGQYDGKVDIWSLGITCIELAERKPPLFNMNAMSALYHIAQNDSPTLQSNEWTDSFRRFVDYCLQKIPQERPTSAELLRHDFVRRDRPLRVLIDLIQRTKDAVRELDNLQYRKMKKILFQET

[10] = target: Tie2(Y897S) (h) (human) (UniProt Q02763)
Tie2(Y897S) (h) (human), sequence (Q02763 771-1124 Y897S limits assumed): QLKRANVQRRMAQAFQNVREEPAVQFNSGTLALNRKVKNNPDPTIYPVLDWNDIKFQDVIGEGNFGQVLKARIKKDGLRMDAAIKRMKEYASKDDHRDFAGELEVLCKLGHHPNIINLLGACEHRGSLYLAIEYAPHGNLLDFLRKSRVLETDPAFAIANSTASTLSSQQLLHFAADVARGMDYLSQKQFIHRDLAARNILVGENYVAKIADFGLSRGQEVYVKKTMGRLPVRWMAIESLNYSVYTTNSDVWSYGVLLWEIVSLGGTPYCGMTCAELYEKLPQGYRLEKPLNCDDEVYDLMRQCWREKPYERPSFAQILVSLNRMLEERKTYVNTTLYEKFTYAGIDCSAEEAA

MMI-0300 (peptide)
% activity at 100 µM [1]: 94%
% activity at 100 µM [2]: 93%
% activity at 100 µM [3]: 48%
% activity at 100 µM [4]: 59%
% activity at 100 µM [5]: 83%
% activity at 100 µM [6]: 22%
% activity at 100 µM [7]: 101%
% activity at 100 µM [8]: 66%
% activity at 100 µM [9]: 77%
% activity at 100 µM [10]: 83%

From patent US20160136234A1
